# Experimental data: the nanobody polyreactivity screen of Harvey et al. (2022)
# Assay: yeast display, Sf9 membrane polyspecificity reagent, FACS + sequencing; frameworks hold sequencing errors
# How it was run: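 Genes from sorted yeast were amplified by colony PCR, read by MiSeq 2 × 250 sequencing and filtered on CDR length. These cells carried a synthetic nanobody library in Saccharomyces cerevisiae BJ5465 and were sorted by FACS into low and high (top ~1%) gates on anti-HA and streptavidin fluorescence. Polyreactivity is labelled according to the gate of origin.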
row,Sequence,polyreactivity (PSR sort gate)
1,QVQLVESGGGLVQAGGSLRLSCAASGSTFQHYAMGWYRQAPGKERELVAAITNTGGSTYYADSVKGRFTISRDNAMNTVYLLMNSLKPEDTAVYYCATVGRRYGYPGYYWGQGTQVTVSS,low polyreactivity
2,QVQLVESGGGLVQAGGSLRLSCAASGSTFQINAMGWYRQAHGKERALVAAIDGGGDTYYADSVKGRFTISRDNAKKTDYLQMNSLKPEDTAVYYCAAERRIYYQDFNYCGQGTQVTVSS,low polyreactivity
3,QVQLVESGGGLVQAGGSLRLSCAASGSTFQKYVMGWYRQAPGKERELVAAISINGVRTYYADSVKGRFTISRDYAKNTVYLQMNSLKPEDTAVFFCNNDTLIRRGSGRGYWGQGTQVNVSS,high polyreactivity
4,QVQLVESGGGLVQAGGSLRLSCAASGSTFQLYAMGWYRQAPGKERELVATISWRGGSTYYADSVKGRFTISRDNAKNTVYLQMNSLKPEDTAVYYCAADFYLRGRYYSRYGSWGQGTQVTVSS,high polyreactivity
5,QVQLVESGGGLVQAGGSLRLSCAASGSTFQPYAMGWYRQAPGKEREFVAAIRWGTGSTYYADSVKGRFTISRDNAKNTVYLQMNILKPEDTAVYYCAKRRVSASREYYWGQGTQVTVSS,high polyreactivity
6,QVQLVESGGGLVQAGGSLRLSCAASGSTFQPYTMGWYRQAPGKERELVAAISSSGRTNYADSVKGRFTISRDNAKNTVYLQMNSLKPEDTAVYYCNRDYPYIWHKGARYWHENDYWGQGTQVTVSS,low polyreactivity
7,QVQLVESGGGLVQAGGSLRLSCAASGSTFQRYAMGGYRQAPGKERQLVAAISSGGSTYYADSVKGRFTISRDNAKNTVYLQINSLKPEDTAVYYCAARIYVVWSSRVYWMYYWGQGTQVTVSS,high polyreactivity
8,QVQLVESGGGLVQAGGSLRLSCAASGSTFQRYAMGWYRQAPGKERELVAAITWSNGSTYYADSVKGRFTISRDNAKNTVYLQMNSLKPEDTAVYYCDAEVHLGGDYWGQGTQVTVSS,low polyreactivity
9,QVQLVESGGGLVQAGGSLRLSCAASGSTFQRYVIGWYRQAPGKERELVAAITRTGASTYYADSVKGRFTISRDNAKNTVYLQMNSLKPEDTAVYYCAARYRLGSYTYDYSGQGTQVTVSS,high polyreactivity
10,QVQLVESGGGLVQAGGSLRLSCAASGSTFQTNAMGWYRQAPGKERELVAGIRWRGGSTYYADSVKGRFTISRDNAKNTVYLQMNSLKPEDSAVYYCAAYYLWHHYLFDYWGQGTQVTVSS,high polyreactivity
11,QVQLVESGGGLVQAGGSLRLSCAASGSTFQTYAMGWYRQAPGKERELVASINWRSGSTYYADSVKGRFTISRDNAKNTVYLQMNSLKPEDTAVYSCAAELDFSPGYYYLYDYWGQGTQVTVSS,low polyreactivity
12,QVQLVESGGGLVQAGGSLRLSCAASGSTFQTYVMGWYRQAPGKERELVAAITWSGGSTYYADSVKGRFTISRDNAKNTVYLQMNSLKPEDTAVYYCAARFPWRGGVKYSYYFQHDYWGQGTQVTVSS,high polyreactivity
13,QVQLVESGGGLVQAGGSLRLSCAASGSTFQVYAKGWYRQAPGKERELVAAIDSGVSTYYADSVKGLFTFSRDNAKNTVYLQMNSLKPEDTAVYYWYGYDYWGQGTQVTVSS,low polyreactivity
14,QVQLVESGGGLVQAGGSLRLSCAASGSTFQVYAMGWYRQAPGKERELVATIRRTGGSTYYADSVKGRFTISRDNAKNTVYLQMNSLKPEDTAVYYCAARLGYAGNRDGSWGQGTQVTVSS,high polyreactivity
15,QVQLVESGGGLVQAGGSLRLSCAASGSTFQVYGLGWYRQAPGKERELVAAISRSGGRTYYADSVKGRFTISRDNAKNTVYLQMNSLKPEDTAVYYCAKTYQTTTSKSGYYYWGQGTQVTVSS,high polyreactivity
16,QVQLVESGGGLVQAGGSLRLSCAASGSTFQVYTMGWYRQAPGKEREFVASISWSGSSTYYADSVKGRFTISRDNAKNTVYLQMNSLKPEDTAVYYCAAPDESYSVWRLDGLDYWGQGTQVTVSS,high polyreactivity
17,QVQLVESGGGLVQAGGSLRLSCAASGSTFQYYAMGWYRQAPGKERELVAAISSGGSTYYADSVKGRFTISRDNAKNTVYLQMNSLKPEDTAVYYCAADFVNRQANRQFDYWGQGTQVTVSS,high polyreactivity
18,QVQLVESGGGLVQAGGSLRLSCAASGSTFQYYAMGWYRQEPGKEREFVASISGSGGSTNYADSVKGRFTISRDNAKNTVYLQMNSLKPEDTAVYYCAKEYVTEFQGYYYWGQGTQVTVSS,low polyreactivity
19,QVQLVESGGGLVQAGGSLRLSCAASGSTFQYYDMGWYRQAPGKERELVASITGSGDSTYYADSVKGRFTISRDNAKNTVYLQMNSLKPEDTAVYYWGQGTQVTVSS,low polyreactivity
20,QVQLVESGGGLVQAGGSLRLSCAASGSTFRANTMGWYRQAPGKERELVAAITSGGSTYYADSVKGRFTISRDNAKNTVYLQMNSLKPEDTAVYYCAADYTGDWADGPHSLREYDYWGQGTQVTVSS,low polyreactivity
21,QVQLVESGGGLVQAGGSLRLSCAASGSTFRDYAMGWYRQAPGKERELVASITSGSSTYADSVKGRFTISRDNAKNTVYLQMNCLKPEDTAVYYCNADGITSLPVPALDYWGQGTQVTVSS,low polyreactivity
22,QVQLVESGGGLVQAGGSLRLSCAASGSTFREYTMGWYRQAPGKEWDLVAAITNSGGSTYYADSVKGRFTISRDNAKNTVYLQMNSLKPEDTAVYYCAAEVGIVDYDYWGQGNQVTVSS,low polyreactivity

row,Sequence,polyreactivity (PSR sort gate)
1,QVQLVESGGGLVQAGGSLRLSCAASGSTFRFNAMGWYRQAPGKEREFVAAIRFTGGSTYYADSVKGRFTISRDNAKNTVYLQMNSLKPEDTAVYYCNNADEYSTVEYDYWGQGSQVTVSS,low polyreactivity
2,QVQLVESGGGLVQAGGSLRLSCAASGSTFRFYAMGWYRQAPGKERELVATISSSGGTTYYADSVKGRFTISRDNAKNTVYLQMNSLKPEDTAVYYCAARYYDTRWRYYYWGQGTQVTVSS,high polyreactivity
3,QVQLVESGGGLVQAGGSLRLSCAASGSTFRGNAMGWYRQAPGKERELVAAITRRGGSTYYADSVKGRFTISRDNAKNTVYLQMNRLKPEDTAVYYCAADWGNDWWGLFWGDYWGQGTQVTVSS,high polyreactivity
4,QVQLVESGGGLVQAGGSLRLSCAASGSTFRGNAMGWYRQAPGKERELVASITGGGSTNYADSVKGRFTISRDNAKNTVYLQMNSLKPEDTAVYYCAADWGADFYWGQGTQVTVSS,low polyreactivity
5,QVQLVESGGGLVQAGGSLRLSCAASGSTFRGNAMGWYRQAPWKEREFVASISRRGGRTNYADSVKGRFTISRDNAKNTVYLQMNSLKPEDTAVYYCAAGRYRYKYRYFTAWYGYWGQGTQVTVSS,high polyreactivity
6,QVQLVESGGGLVQAGGSLRLSCAASGSTFRGYAMGWYRQAPGKEREFVAAISRRGGTTYYADSVKGRFTISRDNAKNTVYLQMNSLKPEDTAVYYCNKVYYQHYLAFDYWGQGTQVNVSS,high polyreactivity
7,QVQLVESGGGLVQAGGSLRLSCAASGSTFRGYAMGWYRQAPGKERELVAAISRSGGSTYYADSVKGRFTISRDNAKNTVYLQMNSLKPEDTAVYYCNARSSKRSSRGYDYWGQGTQVTVSS,high polyreactivity
8,QVQLVESGGGLVQAGGSLRLSCAASGSTFRGYAMGWYRQAPGKERELVAAITSDGSTNYADSVKGRFTISRDNAKNTVYLQMNSLKPEDTAVYYCNVKATRKWWDRRVYRYNYWGQGTQVTVSS,high polyreactivity
9,QVQLVESGGGLVQAGGSLRLSCAASGSTFRGYAMGWYRQAPGKERELVAASTWSGVTTYYADSVKGRFTISRDNAKNNVYLQMHSLKPEDTAVYYCATGTLYSDGAIYGYWGQGTQVTVSS,low polyreactivity
10,QVQLVESGGGLVQAGGSLRLSCAASGSTFRGYAMGWYRQAPGKERELVAGITKRGGSTYYADSVKGRFTISRDNAKNTVYLQMNSLKPEDTAVYYCAAGKHRQAYEHDYWGQGTQVTVSS,high polyreactivity
11,QVQLVESGGGLVQAGGSLRLSCAASGSTFRHYAMGLYRQAPGKERELVAAISSTGGSTYYADSVKGRFTISRDNAKNTVYLQMNSLKPEDTAVYYCAASPYGFRRNYYWGQGTQVTVSS,high polyreactivity
12,QVQLVESGGGLVQAGGSLRLSCAASGSTFRHYAMGWYRQAPGKERELVAAITRRTVSTYYADSVKGRFTISRDNAKNSVYLQMNSLKPEHTAVYYCAADYWYSGYDYWGQGTQVTVSS,low polyreactivity
13,QVQLVESGGGLVQAGGSLRLSCAASGSTFRINAMGWYRQAPGKERELVAAISRSGSITYYADSVKGRFTISRDNAKNTVYLQMNSLKPEDTAVYYCAAKSRKGGDYWGQGTQVTVSS,high polyreactivity
14,QVQLVESGGGLVQAGGSLRLSCAASGSTFRIYAMGWYRQAPGKERELVARISWNGGRTYYADSVKGRFTISRDNAKNTVYLQMNSLKTEDTAVYYCNALVPPGYDYWGQGTQVTVSS,high polyreactivity
15,QVQLVESGGGLVQAGGSLRLSCAASGSTFRIYAMGWYRQAPGKERELVASISSGGRTYYADSVKGRFTISRDNAKNTVYLQMNSLKPEDTAVYYCNARHYYIWWRSPTRTAMNYWGQGTQVTVSS,high polyreactivity
16,QVQLVESGGGLVQAGGSLRLSCAASGSTFRLYAMGGSRQAPGKERELVAAIRSGGNTNNADSVKGRFTISRDNAKHTVYLQMNSLKPEDTAVYYCNGFSGQLPVPNYDYWGQGTQVTVSS,high polyreactivity
17,QVQLVESGGGLVQAGGSLRLSCAASGSTFRLYAMGWYRQAPGEERELVASITFSDSITSYADSVKGRFTISRDNAKNTVYLQMNSLKPEDTAVYYCDKDTSYENVVYTFDYDYWGQGTQVTVSS,low polyreactivity
18,QVQLVESGGGLVQAGGSLRLSCAASGSTFRLYAMGWYRQAPGKEREFVAAISFRGGSTYYADSVKGRFTISRDNAKNTVYLQMNSLKPEDTAVYYCAADYWTSADPRNIIKYDYWGQGTQVTVSS,high polyreactivity
19,QVQLVESGGGLVQAGGSLRLSCAASGSTFRLYAMGWYRQAPGKERELVAAISYSGGSTYYADSVKGRFTISRDNAKNTVYLQMNSLKPEDTAVYYCNAVRRHGGYYDYGYWGQGTQVTVSS,high polyreactivity
20,QVQLVESGGGLVQAGGSLRLSCAASGSTFRLYAMGWYRQAPGKERELVAVISRSGGRTYADSVKGRFTISRDNAKNSVYFQMNSLKPEDTAVYYCAKARHKSATYTHDSWGQGTQVTVSS,high polyreactivity
21,QVQLVESGGGLVQAGGSLRLSCAASGSTFRLYTMGWYRQAPGKERELVASIRGSGGRTYYADSVKGRFTISRDNAKNTVYLQMNSLKPEDTAVYYCNAESYSTWSFGHRYEYDYWGQGTQVTVSS,low polyreactivity
